Consider two molecules from article PMC3057708 (Molecular Biology of the Cell, 2011).

First the molecules themselves.
B1: GST-Sec4 (natural protein)
chain: MSGLRTVSASSGNGKSYDSIMKILLIGDSGVGKSCLLVRFVEDKFNPSFITTIGIDFKIKTVDINGKKVKLQLWDTAGQERFRTITTAYYRGAMGIILVYDVTDERTFTNIKQWFKTVNEHANDEAQLLLVGNKSDMETRVVTADQGEALAKELGIPFIESSAKNDDNVNEIFFTLAKLIQEKIDSNKLVGVGNGKEGNISINSGSGNSSKSNCC
B2: purified full-length Sro7, soluble (natural protein)
chain: MFGSKRLKNVKEAFKSLKGQNSETPIENSKASFKSKNSKTSTISKDAKSSSSLKIPISSNNKNKIFSLAETNKYGMSSKPIAAAFDFTQNLLAIATVTGEVHIYGQQQVEVVIKLEDRSAIKEMRFVKGIYLVVINAKDTVYVLSLYSQKVLTTVFVPGKITSIDTDASLDWMLIGLQNGSMIVYDIDRDQLSSFKLDNLQKSSFFPAARLSPIVSIQWNPRDIGTVLISYEYVTLTYSLVENEIKQSFIYELPPFAPGGDFSEKTNEKRTPKVIQSLYHPNSLHIITIHEDNSLVFWDANSGHMIMARTVFETEINVPQPDYIRDSSTNAAKISKVYWMCENNPEYTSLLISHKSISRGDNQSLTMIDLGYTPRYSITSYEGMKNYYANPKQMKIFPLPTNVPIVNILPIPRQSPYFAGCHNPGLILLILGNGEIETMLYPSGIFTDKASLFPQNLSWLRPLATTSMAASVPNKLWLGALSAAQNKDYLLKGGVRTKRQKLPAEYGTAFITGHSNGSVRIYDASHGDIQDNASFEVNLSRTLNKAKELAVDKISFAAETLELAVSIETGDVVLFKYEVNQFYSVENRPESGDLEMNFRRFSLNNTNGVLVDVRDRAPTGVRQGFMPSTAVHANKGKTSAINNSNIGFVGIAYAAGSLMLIDRRGPAIIYMENIREISGAQSACVTCIEFVIMEYGDDGYSSILMVCGTDMGEVITYKILPASGGKFDVQLMDITNVTSKGPIHKIDAFSKETKSSCLATIPKMQNLSKGLCIPGIVLITGFDDIRLITLGKSKSTHKGFKYPLAATGLSYISTVEKNNDRKNLTVIITLEINGHLRVFTIPDFKEQMSEHIPFPIAAKYITESSVLRNGDIAIRVSEFQASLFSTVKEQDTLAPVSDTLYINGIRIPYRPQVNSLQWARGTVYCTPAQLNELLGGVNRPASKYKESIIAEGSFSERSSDDNNANHPEHQYTKPTRKGRNSSYGVLRNVSRAVETRWDAVEDRFNDYATAMGETMNEAVEQTGKDVMKGALGF

The target of assay [1] is B2. Description: pull-down.
The target of the assay “GST-Sec4” is B1. Nature of the assay: pull-down.

Bounds are passed on as bounds.

For B1, the binding result in assay [1] is on record as “binds”. In the case of B2, the “fold binding to GTPγS-bound Sec4 over GDP-bound Sec4” value with GST-Sec4 is greater than 5 fold.
